Test results: article PMC9278655

Experiments:
Crimson = assay: SEC; HPLC (LC-20A), Superdex 200 10/300 GL; 200 uL of fluorescent protein loaded at 10 uM; 0.5 mL/min; 50 mM PBS pH 7
mKate2 = assay: as above

Substance	stoichiometry N (Crimson)	stoichiometry N (mKate2)
Crimson	2	–
mKate2	–	2
